This passage reports maximum fold induction of luciferase reporter (two-hybrid switch, stable CHO clone 1A2, non-steroidal ligand) and maximum fold induction of luciferase reporter (two-hybrid switch, stable CHO clone 1A2, steroid PonA) results from patent publication US20120167239A1.

The target of the experiment is GAL4:CfEcR-DEF (yeast; Choristoneura fumiferana). Kind of experiment: cell-based or functional assay.

In turn, VP16:LmUSP-EF gave a maximum fold induction of luciferase reporter (two-hybrid switch, stable CHO clone 1A2, non-steroidal ligand) of 162 fold and a maximum fold induction of luciferase reporter (two-hybrid switch, stable CHO clone 1A2, steroid PonA) of 42 fold.
